Consider one substance from patent US20230302116A1.

In assay [1] the target is nAb2 (Active Motif 91361), human anti-spike neutralizing antibody. Put plainly: Octet BLI, target on AHC sensor, spike as analyte. In general terms: In BLI a coated tip is dipped into the sample, and binding shifts an interference pattern.
The target in assay [2] is nAb3 (Absolute Antibody Ab01680-10.0), human anti-spike neutralizing antibody. Put plainly: Octet BLI, target on AHC sensor, spike as analyte.
The target in assay [3] is nAb1 (Active Motif 91349), human anti-spike neutralizing antibody. As to the kind of experiment: Octet BLI, target on AHC sensor, spike as analyte.
Assay [4] addresses nAb2 (Active Motif 91361), human anti-spike neutralizing antibody. As to the kind of experiment: repeat Octet BLI, target on AHC sensor, spike as analyte.
Assay [5] concerns the target nAb3 (Absolute Antibody Ab01680-10.0), human anti-spike neutralizing antibody. The description is as above.
In assay [6] the target is nAb1 (Active Motif 91349), human anti-spike neutralizing antibody. The assay is described as above.

Usually kon stands for a measure of how fast the partners come together. A high value points to fast association. Take “SPN-C52H8 (SARS-CoV 2 Spike protein with His Tag, Acro Biosystems) (from UniProt P0DTC2 14-1213)”: the kon in assay [1] is 115000 M⁻¹ s⁻¹; in assay [2], 34300 M⁻¹ s⁻¹; in assay [3] it was 75400 M⁻¹ s⁻¹; in assay [4] it was 54300 M⁻¹ s⁻¹; in assay [5], 11300 M⁻¹ s⁻¹; in assay [6], 18400 M⁻¹ s⁻¹.
